Biological target: botulinum toxoid A (UniProt P0DPI0)
Assay: Luminex AMP-capture assay with antibody tracers

botulinum toxoid A, sequence (P0DPI0 2-1296): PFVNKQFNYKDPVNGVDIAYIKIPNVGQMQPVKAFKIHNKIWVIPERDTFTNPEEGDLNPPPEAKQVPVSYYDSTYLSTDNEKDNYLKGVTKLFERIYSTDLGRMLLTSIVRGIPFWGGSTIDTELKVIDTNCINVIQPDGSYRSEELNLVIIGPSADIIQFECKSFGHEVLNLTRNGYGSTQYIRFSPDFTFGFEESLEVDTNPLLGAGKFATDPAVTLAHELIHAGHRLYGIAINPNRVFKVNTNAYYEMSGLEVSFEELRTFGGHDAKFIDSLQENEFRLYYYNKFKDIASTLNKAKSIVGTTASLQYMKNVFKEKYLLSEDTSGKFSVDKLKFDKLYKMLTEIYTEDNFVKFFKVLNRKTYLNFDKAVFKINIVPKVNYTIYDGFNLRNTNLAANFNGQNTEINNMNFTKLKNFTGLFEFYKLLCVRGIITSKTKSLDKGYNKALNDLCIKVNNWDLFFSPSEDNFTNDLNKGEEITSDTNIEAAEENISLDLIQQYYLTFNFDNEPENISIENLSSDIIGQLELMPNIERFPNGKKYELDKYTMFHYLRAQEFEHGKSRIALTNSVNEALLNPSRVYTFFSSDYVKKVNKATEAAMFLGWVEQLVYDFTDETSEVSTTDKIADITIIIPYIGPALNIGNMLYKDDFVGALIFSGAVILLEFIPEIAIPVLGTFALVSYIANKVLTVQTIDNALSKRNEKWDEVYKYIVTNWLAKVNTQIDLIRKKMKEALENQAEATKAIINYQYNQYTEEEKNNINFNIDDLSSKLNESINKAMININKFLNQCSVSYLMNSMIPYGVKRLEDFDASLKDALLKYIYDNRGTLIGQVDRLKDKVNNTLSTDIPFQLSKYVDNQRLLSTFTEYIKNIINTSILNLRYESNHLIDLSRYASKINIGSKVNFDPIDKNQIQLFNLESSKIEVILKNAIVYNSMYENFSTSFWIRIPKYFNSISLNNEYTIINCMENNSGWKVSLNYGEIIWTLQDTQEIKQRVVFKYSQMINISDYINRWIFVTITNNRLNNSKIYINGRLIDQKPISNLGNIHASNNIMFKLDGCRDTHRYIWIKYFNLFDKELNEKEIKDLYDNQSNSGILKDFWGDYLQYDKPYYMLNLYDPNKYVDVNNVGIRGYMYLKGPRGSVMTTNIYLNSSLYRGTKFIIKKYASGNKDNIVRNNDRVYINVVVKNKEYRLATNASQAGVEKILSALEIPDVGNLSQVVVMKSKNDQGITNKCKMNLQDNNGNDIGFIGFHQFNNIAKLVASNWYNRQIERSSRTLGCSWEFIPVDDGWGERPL

AMP-derivatized Luminex beads
lowest detectable concentration: 1 µg/mL
